In patent US20040091964A1, “Modified proteins, isolated novel peptides,and uses thereof” (priority 2003, published 2004):
Entries after “also recorded” stand apart in the source; their conditions may differ.

Experiments:
[1] = test system: MDCK cells; experiment: Localization of GFP fusion proteins in polarized MDCK cells by confocal microscopy; format: cell-based, canine; conditions: GFP fusion protein, confluent MDCK cells on Transwell membranes
Procedure: The cMOAT-gfp and MRP1-gfp constructs supra (1 μg of DNA per transfection) were separately transfected into MDCK cells and L1210 cells using a UpofectAMINE transfection kit (Life Technologies, Inc.). Transfections of MDCK cells were carried out using Transwell plates (Costar, 24 mm×3 μm polycarbonate membrane) to enable cell polarization. Cells were imaged using a NikonTE300 inverted microscope linked to a Radiance 2000 Laser Scanning System for confocal microscopy and Lasersharp 2000 imaging software (Bio-Rad).
To conveniently detect the localization of the proteins under investigation, GFP fusion proteins were produced and their localization visualized using confocal microscopy to visualize the fluorescent product, as described supra. […]

[2] = test system: L1210 cells; experiment: 2,4-Dinitrophenyl glutathione (DNP-GS) transport from L1210 cells; format: cell-based, mouse; conditions: L1210 cells expressing the protein, compared with control L1210 cells; spectrophotometry
Source text: DNP-GS was generated in L1210 cells by exposure to 1-chloro-2,4-dinitrobenzene and its efflux determined as described previously (Olive et al., (1994) Biochim. Biophys. Acta 1224, 264-268).

[3] = test system: L1210 cells; experiment: [3H]paclitaxel transport from L1210 cells expressing modified MDR3; format: cell-based, mouse; conditions: L1210 cells stably expressing the polypeptide without GFP tag, compared to control L1210 cells
Procedure: The transport of [^3H]paclitaxel is determined from L1210 cells expressing the modified MDR3 polypeptide and compared to the efflux of [^3H]paclitaxel from control L1210 cells not ectopically expressing any MDR3 polypeptide.

[4] = test system: L1210 cells; experiment: Survival of L1210 cells in the presence of Busulfan; format: cell-based, mouse; conditions: versus non-transfected L1210 cells or L1210 cells expressing native cMOAT
Procedure: Accordingly, the ability of modified cMOAT polypeptides to confer resistance to Busulfan was determined in L1210 cells. In particular, the ΔcMOAT polypeptide having the amino acid sequence set forth in SEQ ID NO: 4, was expressed in L1210 cells as described in Example 1. The transfected cells were exposed to a range of concentrations of Busulfan. The survival of wild type L1210 cells, and transfected L1210 cells expressing either native cMOAT or ΔcMOAT, was determined in the presence of Busulfan. Survival was also assessed relative to the growth of cells that had not been exposed to Busulfan. Cell growth and survival were assayed using standard procedures (Denizot et al (1986), J. Immunol. Methods 89, 271-277).

[5] = test system: L1210 cells; experiment: 6-mercaptopurine transport (6-thio-IMP efflux) from L1210 cells expressing modified MRP4; format: cell-based, mouse; conditions: L1210 cells stably expressing the polypeptide without GFP tag, compared to control L1210 cells or L1210 cells expressing native MRP4
Procedure: Radiolabeled 6-mercaptopurine is added to L1210 cells expressing the modified MRP4 polypeptide and the efflux of 6-thio-IMP compared to the efflux of 6-thio-IMP from L1210 cells expressing native MRP4, or alternatively, the efflux of 6-thio-IMP from control L1210 cells not ectopically expressing any MRP4 polypeptide.

F1545A: modified cMOAT polypeptide with Phe1545 mutated to alanine, tested as cMOAT-gfp fusion
membrane localization in polarized MDCK cells [1]: did not exhibit modified localization; also recorded: did not alter normal targeting; also recorded: same localization as the native protein

S1542A: modified cMOAT polypeptide with Ser1542 mutated to alanine, tested as cMOAT-gfp fusion
membrane localization in polarized MDCK cells [1]: fluorescence appears to be in sub-membrane vesicles

T1543A: modified cMOAT polypeptide with Thr1543 mutated to alanine, tested as cMOAT-gfp fusion
membrane localization in polarized MDCK cells [1]: both apical and basolateral targeting with an increase in protein accumulation in intracellular vesicles; also recorded: non-polarized distribution

cMOAT: native human canalicular multispecific organic anion transporter (MRP2) [reference compound]
efflux of DNP-GS into the supernatant [2]: little evidence for the transport of DNP-GS; also recorded: minimal; also recorded: same rate of efflux

modified MDR3 polypeptide: modified human MDR3 polypeptide lacking the T-K-F motif (terminal 4 amino acids deleted)
efflux of [3H]paclitaxel [3]: significantly higher efflux

ΔcMOAT: modified human cMOAT polypeptide wherein the C-terminal T-K-F motif was deleted, without a GFP tag
resistance to Busulfan conferred on L1210 cells [4]: significantly enhanced resistance to Busulfan | efflux of DNP-GS into the supernatant [2]: significantly higher efflux; also recorded: transport 2,4-dinitrophenyl glutathione; also recorded: increased transport

B1: modified MRP4 polypeptide: modified human MRP4 polypeptide lacking the T-K-F motif (terminal 3 amino acids deleted) (protein, listed as Homo sapiens)
chain: MLPVYQEVKPNPLQDANLCSRVFFWWLNPLFKIGHKRRLEEDDMYSVLPEDRSQHLGEELQGFWDKEVLRAENDAQKPSLTRAIIKCYWKSYLVLGIFTLIEESAKVIQPIFLGKIINYFENYDPMDSVALNTAYAYATVLTFCTLILAILHHLYFYHVQCAGMRLRVAMCHMIYRKALRLSNMAMGKTTTGQIVNLLSNDVNKFDQVTVFLHFLWAGPLQAIAVTALLWMEIGISCLAGMAVLIILLPLQSCFGKLFSSLRSKTATFTDARIRTMNEVITGIRIIKMYAWEKSFSNLITNLRKKEISKILRSSCLRGMNLASFFSASKIIVFVTFTTYVLLGSVITASRVFVAVTLYGAVRLTVTLFFPSAIERVSEAIVSIRRIQTFLLLDEISQRNRQLPSDGKKMVHVQDFTAFWDKASETPTLQGLSFTVRPGELLAVVGPVGAGKSSLLSAVLGELAPSHGLVSVHGRIAYVSQQPWVFSGTLRSNILFGKKYEKERYEKVIKACALKKDLQLLEDGDLTVIGDRGTTLSGGQKARVNLARAVYQDADIYLLDDPLSAVDAEVSRHLFELCICQILHEKITILVTHQLQYLKAASQILILKDGKMVQKGTYTEFLKSGIDFGSLLKKDNEESEQPPVPGTPTLRNRTFSESSVWSQQSSRPSLKDGALESQDTENVPVTLSEENRSEGKVGFQAYKNYFRAGAHWIVFIFLILLNTAAQVAYVLQDWWLSYWANKQSMLNVTVNGGGNVTEKLDLNWYLGIYSGLTVATVLFGIARSLLVFYVLVNSSQTLHNKMFESILKAPVLFFDRNPIGRILNRFSKDIGHLDDLLPLTFLDFIQTLLQVVGVVSVAVAVIPWIAIPLVPLGIIFIFLRRYFLETSRDVKRLESTTRSPVFSHLSSSLQGLWTIRAYKAEERCQELFDAHQDLHSEAWFLFLTTSRWFAVRLDAICAMFVIIVAFGSLILAKTLDAGQVGLALSYALTLMGMFQWCVRQSAEVENMMISVERVIEYTDLEKEAPWEYQKRPPPAWPHEGVIIFDNVNFMYSPGGPLVLKHLTALIKSQEKVGIVGRTGAGKSSLISALFRLSEPEGKIWIDKILTTEIGLHDLRKKMSIIPQEPVLFTGTMRKNLDPFNEHTDEELWNALQEVQLKETIEDLPGKMDTELAESGSNFSVGQRQLVCLARAILRKNQILIIDEATANVDPRTDELIQKKIREKFAHCTVLTIAHRLNTIIDSDKIMVLDSGRLKEYDEPYVLLQNKESLFYKMVQQLGKAEAAALTETAKQVYFKRNYPHIGHTDHMVTNTSNGQPSTLTIFE
efflux of 6-thio-IMP [5]: significantly higher efflux
